# Values of other authors in article PMC8363833.
# Legend:
# [1] = biological target: PC1 beta-lactamase (Staphylococcus aureus) (UniProt P00807)
# [2] = biological target: TEM1 beta-lactamase (Escherichia coli) (UniProt P62593)
# Sequence of UniProt P62593 (P62593 24-286): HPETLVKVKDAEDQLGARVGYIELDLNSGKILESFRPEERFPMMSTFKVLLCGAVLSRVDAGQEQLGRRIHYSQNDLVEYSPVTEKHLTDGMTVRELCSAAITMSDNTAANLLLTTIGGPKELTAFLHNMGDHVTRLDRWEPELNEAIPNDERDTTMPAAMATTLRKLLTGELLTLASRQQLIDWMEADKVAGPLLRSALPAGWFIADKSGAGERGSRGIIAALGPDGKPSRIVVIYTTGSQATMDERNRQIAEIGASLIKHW
# Sequence of UniProt P00807 (P00807 25-281): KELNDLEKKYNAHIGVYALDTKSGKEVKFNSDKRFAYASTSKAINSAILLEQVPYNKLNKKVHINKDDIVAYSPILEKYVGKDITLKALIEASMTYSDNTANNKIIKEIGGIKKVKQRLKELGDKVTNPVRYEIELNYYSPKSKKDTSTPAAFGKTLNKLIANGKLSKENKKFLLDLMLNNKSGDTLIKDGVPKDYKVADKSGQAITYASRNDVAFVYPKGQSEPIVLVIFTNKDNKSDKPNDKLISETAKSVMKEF
substance,measurement,setting,value
BLIP (from UniProt P35804),Kd,[1],380 nM
same,Kd,[2],1.3 nM
